Data published in paper PMC4901313.

Target: Gp45, receptor binding protein (RBP) of Staphylococcus aureus phage ϕ11 (Staphylococcus aureus phage ϕ11)
Test: crystal structure; native crystals, space group P1, 2.20 Å; grown in 0.1 M bicine/Trizma base pH 8.5, 10% w/v PEG 8000, 20% v/v ethylene glycol, 0.12 M monosaccharide-mix at 16 °C; three monomers related by non-crystallographic three-fold symmetry

## Gp45, receptor binding protein (RBP) of Staphylococcus aureus phage ϕ11 (natural protein)
  stoichiometry N: 3
